Data published in the nanobody polyreactivity screen of Harvey et al. (2022).

Assay: yeast display, Sf9 membrane polyspecificity reagent, FACS + sequencing; frameworks hold sequencing errors
Outline: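 Using colony PCR, genes from sorted yeast display clones were amplified, then sequenced on MiSeq at 2 × 250 and filtered by CDR length. The clones had been stained with 10% biotinylated, detergent-solubilized Sf9 membrane reagent for 1 hour at 4 °C and sorted by FACS into low and high (top ~1%) gates on anti-HA and streptavidin fluorescence. Polyreactivity labels come from the gate of origin.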

Row | Sequence | polyreactivity (PSR sort gate)
1 | QVQLVESGGGLVQAGGSLRLSCAASGSIVAWYGMGWYRQAPGKERELVAAISTAGSTNYADSVKGRFTISRDNAKNTVYLQMYSLKPEDTAVHYCAKKSSWYYPERFDYWGQGTQVTVSS | low polyreactivity
2 | QVQLVESGGGLVQAGGSLRLSCAASGSIVDYNAMGWYRQPPGKERELVAAISSGGSTYYADSVKGRFTISRDNAKNTVYLQMNSLKPEDTAVYYCAVKFWLVIQFDYWGQGTQVTVSS | low polyreactivity
3 | QVQLVESGGGLVQAGGSLRLSCAASGSIVENMGWYRQAPGKERELVAAISSSGDSTYYADSVKGRFTISRDNAKNTVYLQMNSLKPEDTAVYYCAADFYYYKKQYDYWGQGTQVTVSS | low polyreactivity
4 | QVQLVESGGGLVQAGGSLRLSCAASGSIVGYYAMGWYRQAPGKEREFVARISSSTDSTYYADSVKGRFTISRDNAKKTVYLQMNSLKPEDTAVYYCNADDTWYYGYWGQGTQVTVSS | low polyreactivity
5 | QVQLVESGGGLVQAGGSLRLSCAASGSIVRYYAMGWYSQAPGKERELVAAISYRGGTTYYADSVKGRFTISRDNAKNTVYLQMNSLKPEDTAVYYCAAGYKAAGWTQYGYWGQGTPVTVSS | high polyreactivity
6 | QVQLVESGGGLVQAGGSLRLSCAASGSIVSGYAMGCYRQARGKERELVDAITRSGGRTYYADSVKGRFTISRDNAKNTVYLQMNSLKPEDTAVYYCAARGGPGDDYWGQGTQETVSS | high polyreactivity
7 | QVQLVESGGGLVQAGGSLRLSCAASGSIVVGYAMGWYRQAPGKERELVAAITGSGTRTYYADSVKGRFTISRDNAKNTVYLQMNSLKPEDTAVYYCAAPLSYKNVKYDYWGQGTQVTVSS | low polyreactivity
8 | QVQLVESGGGLVQAGGSLRLSCAASGSIVVRNAMGWYRQAPGKERELVAAITYRGGSTYYADSVKGRFTISRDNAKNTVYLQMNSLNPEDTAVYYCFDVNTDVLSRVYRGWGYYYWGQGTQVTVSS | low polyreactivity
9 | QVQLVESGGGLVQAGGSLRLSCAASGSIYASNTMGWYRQAPGKERELVAGITKIGSSTYYADSVKGRFTISRDNAKNTVYLQMNSLKPEDTAVYYCNAYGPNIYSSRYDYWGQGTQVTVSS | low polyreactivity
10 | QVQLVESGGGLVQAGGSLRLSCAASGSIYAYYAMGWYRQAPGKERELVATISGGGVGTYYADSVKGRFTISRDNAKNSVYLQMNSLKPEDTAVYYCAADGAQAVIYGDRIEMDYWGQGTQVTVSS | low polyreactivity
11 | QVQLVESGGGLVQAGGSLRLSCAASGSIYDRYVMGWYRQAPGKERELVAAISKSGGNTYYADSVKGRFTISRDNAKNTVYLQMNSLKPEDTAVYYCNARSGRYYLGYGYWGQGTQVTVSS | high polyreactivity
12 | QVQLVESGGGLVQAGGSLRLSCAASGSIYEYYVMGWYRHAPGKERELVAAISYSGDSTYYADSVKGRFTISRDNAKNTVYFQMNSLKPEDTAVYYCAAQYSRVIPPGYDYWGQGSQVTVSS | high polyreactivity
13 | QVQLVESGGGLVQAGGSLRLSCAASGSIYGLYAMGWYRQAPGKERELVATITSGSSTNYADSVKGRFTISRDNAKNTVYLQMNSLKPEDTAVYYCAVDDLYGFDYWGQCTQVTVSS | low polyreactivity
14 | QVQLVESGGGLVQAGGSLRLSCAASGSIYKYYAMGWYRQAPGKERELVAALTIGGITNYADSVKGGFTISRDNATNTVYLQMTSLKPEDPAVYYCATGVYYSAIVYGGYDYWGQGTQVTVSS | low polyreactivity
15 | QVQLVESGGGLVQAGGSLRLSCAASGSIYLNYAMGWYRQAPGKERELVAGISNGGSTNYADSVKGRFTISRDNAKNTVYLQMKSLIPEDTAVYYCARPAYKSRGKRFDYWGQGTQVTVSS | low polyreactivity
16 | QVQLVESGGGLVQAGGSLRLSCAASGSIYRDALGWYRQAPGKERELVAAINFNGGRTYYADSVKGRFTISRDNAKNTVYLQMNSLKPEDTAVYYCAAVRSSNQGGFDYWGQGTQVTVSS | high polyreactivity
17 | QVQLVESGGGLVQAGGSLRLSCAASGSIYRDYTMGWYRQAPGKERELVAISWSSGGTNYADSVKGRFTISRDNAKNTVYLQMNSLKPEDTAVYYCAADRSTGLGDDDYWGQGTQVTVSS | low polyreactivity
18 | QVQLVESGGGLVQAGGSLRLSCAASGSIYRRYAMGWYRQAPGKERELVAAINQSGGRTYYADSVKGRFTISRDNAKNTVYLQMNSLKPEDTAVYYCAARYYGRVGGDSIGYNYWGQGTQVTVSS | high polyreactivity
19 | QVQLVESGGGLVQAGGSLRLSCAASGSIYRYAMGWYRQAPGKEREFVAAITWNGGSTYYADSVKGRFTISRDNAKNTVYLQMNSLKPEDTAVYSCAAYEKRLGYDYWGQGTQVTVSS | high polyreactivity
20 | QVQLVESGGGLVQAGGSLRLSCAASGSIYRYYPMGWYRQAPGKEREFVAAITYSDSDTYYADSVKGRFTISRDNAKNTVYLQMNRLKPEDTAVYYCAARFRRTRVTYYYWGQGTQVTVSS | high polyreactivity
21 | QVQLVESGGGLVQAGGSLRLSCAASGSIYSINAMGWYRQAPGKERELVAAISWSGGSTYYADSVKGRFTISRDNAKNTVYLQMNSLKPEDTAVYYCNAEEDEYGELDYWGQGTQVTVSS | low polyreactivity
22 | QVQLVESGGGLVQAGGSLRLSCAASGSIYSSYAMGWYRQAPGKERELVAAISSSGDSTYADSVKGRFTISRDNAKNTVYLQMNSLKPEDTAVYYCAVGGAGSDDYWGQGTQVTVSS | low polyreactivity

Row | Sequence | polyreactivity (PSR sort gate)
23 | QVQLVESGGGLVQAGGSLRLSCAASGSIYWRYAMGWYRQAPGKEMELVASITSGGGSTYYADSVKGRFTISRDNAKNTVYLQMNSLKPEDTAVYYCAAERYYSEAIFRSYDYWGQGTQVTLSS | low polyreactivity
24 | QVQLVESGGGLVQAGGSLRLSCAASGSIYYPYAMGRYRQAPGKERELVAAITTGGSTYYADSVKGRFTISRDNAKNTVYLQMNSLKPEDTAVYYGNKGSFPYTSKAYSYSLGGDDYWGQGTQVTVSS | low polyreactivity
25 | QVQLVESGGGLVQAGGSLRLSCAASGSIYYQYAMGWYRQAPGKERELVAAITYGGGSTYYADSVKGRFTISRDNAKNTVYLQMISLKPEDTAVYYCAKDLYHTVGRYDYWGQGTQVTVSS | low polyreactivity
26 | QVQLVESGGGLVQAGGSLRLSCAASGSLFGSYAMGWYRQAPGKEREIVASISNSGGSTYYADSVKGRFTISRDNAKNTVYLQMNSLKPEDTAVYYCAAAVYSYTYRYYYWGQGTQVTVSS | high polyreactivity
27 | QVQLVESGGGLVQAGGSLRLSCAASGSLFNRNVMGWYRQAPGKERELVAAMTRGGRTSYADSVKGRFTISRDNAKNTVYLQMNSLKPEDTAGYYCAARRGYWVDYWGQGTQVTVSS | high polyreactivity
28 | QVQLVESGGGLVQAGGSLRLSCAASGSLFSAYAMGWYRQAPGKEREFVAAITRRGGNTYYADSVKGRYTISRDNAKNTVYLQMNSLKPDDTAVYYCAADAGGGPFDYCGQGTQVTVSS | low polyreactivity
29 | QVQLVESGGGLVQAGGSLRLSCAASGSMFFWYVMGWYRQAPGKERELVASISSGGSTYYADSVKGRFTISRDNAKNTVYLQMNSLKPEDTAVYYCNAKSWSPAKSFSFFRFDYWGQGTQETVSS | low polyreactivity
30 | QVQLVESGGGLVQAGGSLRLSCAASGSMFTGYDMGWYRQAPGKERELVAAITASGSGTYYADSVKGRFTISRDNAKNTVYLQMNSLKPEDTAVYYGNAPYLFYRGDSDHYYYNEGGYWGQGTQVTVSS | high polyreactivity
31 | QVQLVESGGGLVQAGGSLRLSCAASGSMSYGYGMGWYRQAPGKEREVVATISGRAGSTYYADSVKGRFTISRDNAKNTVYLQINSLQPEDTAVYYCAAKWWRLTWTAGYGGRGYGYWGQGTQVTVSS | low polyreactivity
32 | QVQLVESGGGLVQAGGSLRLSCAASGSNAMGCYRPAPGKDSELVAVITSRGGSTYYADSVKGRFTISRDNAKNTVYLQMNSLKPEDTAVYYCAKAWYVRGTWSVHVRYGYWGQGTQVTVSS | high polyreactivity
33 | QVQLVESGGGLVQAGGSLRLSCAASGSNFAINAMGWYRQAPGKERELVAAIRYSTGRTYYADSVKGRFTISRDNAKNTVYLQMNSLKPEDTAVYYCAALGFTKYGSRFDYWGQGTQVTVSS | high polyreactivity
34 | QVQLVESGGGLVQAGGSLRLSCAASGSNFASYSMGWYRQSPGKERELVAAITDSGGSTYYADSVKGRLTSSRENGKNTVYLQMNSLKPEDTAVYYCAAYGPYFSYHDYVYWGQGTQVTVSS | low polyreactivity
35 | QVQLVESGGGLVQAGGSLRLSCAASGSNFDDYVMGWYRQAPGKERELVAGINSRGTSTDYADSVKGRFTISRDNAQNTVYLQMNSLKPEDTAVYYCAADDSHGYDYWGQGTQVTVSS | low polyreactivity
36 | QVQLVESGGGLVQAGGSLRLSCAASGSNFDSYAMGWYRQAPGKERVLVAAITRSSVSTYYADSVKGRFTISRDNAKYTVYLQMNSLKPEDTAVYYCAAEDEWSLLYLWFGEYDYWGQGTQVTVSS | low polyreactivity
37 | QVQLVESGGGLVQAGGSLRLSCAASGSNFDYYTMGWYRQAPGKERELVAAISRSGGSTRYADSVKGRFTISRDNAKNTVYLQMNSLKPEDTGVSYCAAGARQGVYRGGDYWGQGTQVTVSS | low polyreactivity
38 | QVQLVESGGGLVQAGGSLRLSCAASGSNFGPNAMGWYRQAPGKERELVAAIRSNGGRTYYADSVKGRFTISRDNAKNTVYLQMNRLKPEDTAVYYCAAPHYPYDTPYGYWGHGTQVTVSS | low polyreactivity
39 | QVQLVESGGGLVQAGGSLRLSCAASGSNFGSYTMGWYRQAPGKERELDAAITSGGGNTYYADSVKGRFTISRDNAKNTVYLQMNSLKPEDTAVYYCNATVRGRNALGRVQKYYYWGQGTQVTVSS | high polyreactivity
40 | QVQLVESGGGLVQAGGSLRLSCAASGSNFGYYAMGWYRQAPGKERELVAAISWRGGSTYYADSVTGRFTISRDNAKNTVYLQMNSLTPEDTAVYDCAAPVGNYGSFDYWGQGTQVTVSS | low polyreactivity
41 | QVQLVESGGGLVQAGGSLRLSCAASGSNFHGNAMGWSRQAPGKERELVAAISQSGDSTYYADSVKGRFTISRDNAKNTVYLQMNSLKPEDTAVYYCAARSGYRGYYHFYYWGQGTQVTVSS | high polyreactivity
42 | QVQLVESGGGLVQAGGSLRLSCAASGSNFIGYAMGWYRQEPGKERELVAAISNSGGRTYYADSVKGRFTISRDNAKNTVYLQMNSLKPEDTAVYYCNVAYRIPYRMDYWGQGTQVTVSS | high polyreactivity
43 | QVQLVESGGGLVQAGGSLRLSCAASGSNFINNAMGWYRQAPGKERELVAAISGNADRTYYADSVKGRFTISRDNAKNTLYLQMNSLKPEETAVYYCNKGYGVYYTFGSWGQGTQVTVSS | low polyreactivity
